Reference: the supplement of paper PMC12042874
± gives the uncertainty stated by the source.

Experiment: amyloid nucleation score (Sup35N fusion, yeast selection) (log enrichment); library NNK3; higher = more nucleation; inactive = no reads after selection
In short: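 Using DiMSum, nucleation scores were taken as the log enrichment of output over input reads, centred on the mode score of non-aggregating sequences. The input and output reads came from Illumina sequencing of plasmid inserts, with sequences under 100 input reads excluded. The yeast were psi-negative, expressed Sup35N fused to peptides of 20 random codons, were induced with 100 μM copper sulfate for 24 hours, and were grown 7 days at 30°C on medium lacking adenine and uracil.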

Amyloid nucleation score, 0.845 ± 0.12:
PRNMVFYVFCNVSLTHAMYS

Amyloid nucleation score, 0.828 ± 0.15:
VRAGTIYRGVYHFCLFCMGE

Amyloid nucleation score, 1.07 ± 0.2:
SEPRWSISDYWTKSVDMVLW

Amyloid nucleation score, 1.77 ± 0.063:
KGSVRYIDCIVIL

Amyloid nucleation score, 0.788 ± 0.12:
EKMDLPRAYGDIRTPKEVVR

Amyloid nucleation score, 1.61 ± 0.069:
ESVNGTSFPVFIYHRTSFRL

Amyloid nucleation score, 0.234 ± 0.44:
IRKSFVEKMLPLPFSLAAIG

Amyloid nucleation score, -0.021 ± 0.22:
KVVVMDCWWNNIYCTDQWVI

Amyloid nucleation score, 0.704 ± 0.12:
VTILMLNHYSYTSLLMRKFN

Amyloid nucleation score, 1.42 ± 0.15:
FLLIILTLYASTCRAQYAFR

Amyloid nucleation score, 1.42 ± 0.09:
GKGSNASIGVITVDTVYIVA

Amyloid nucleation score, 3.26 ± 0.063:
HNVFVFCNMAVIELQVNDWL

Amyloid nucleation score, 0.454 ± 0.14:
SYYITLHWIVASGSYSADNT

Amyloid nucleation score, 0.257 ± 0.52:
LTDRQVCNLIWNNAYGFLC

Amyloid nucleation score, 0.49 ± 0.27:
HIEVCGTLLYCGDRQISVNN

Amyloid nucleation score, 0.159 ± 0.27:
NVSYLGEVWYKFRLCVVCSR

Amyloid nucleation score, 1.47 ± 0.14:
KFILFRVSVKGIRRFQVGR

Amyloid nucleation score, -0.427 ± 1:
IGNCFMTMGRLVSRQDSVPM

Amyloid nucleation score, 1.44 ± 0.083:
TWWSLGSVELVLWFKSCCDF

Amyloid nucleation score, 0 ± 0.59:
WTKECISIGRTWIYRRVGRG

Amyloid nucleation score, inactive:
SFPLSYSSYIRLRVFFVE
PYFFTDLICSFKIGAYEQGS
FLCVRSFRFVCVLFFNDIT
LDLDSNIGFISVLPF
RRHAR
RYRLSCWWIRLGGNRLAWY
SILSPYLV
YAGSCK
WNGILHMMVGGLKTLIGMDY
FNAGYWGMSSKVSNESRWVY
TESQRSNWCTASIKSMYSYS
SPDHLGRLLY
SKWYLFITGFRYMWFVRFNV
HNFYKGFDYHLECMGADTGE
SRLDALLMKLCFVICLRILK
VMYHGMITLLVMLKTEQRKK
VYWFKELADSITRCVKNYIY
SSACYTVLPGKAPTPAYPLL
YKYLLFAFLETLGQWYLYVE
CWLYFLS
GVWRLSVYT
EFVEAYFSNGLSRLPLTHGM
LENGVHVRRSIEF
TVLLIGNMWTYWAYMQCSWG
FYVPVYGERV
GMTEGYYLESVGGSKFDNVV
FLDIRMMIRRLTGGPESVSL
WISSGDIGRVVDWIQVCIEP
RAYGPGRSASEALGRLCVGL
NTLDERDCRSKLFAFLLRPS
CESPLERSSAKYCRWGSCWG
TFYDDYQDLQKLFARFWLPV
TLSCDRKNCVVHCFLIQRFL
GSHICGALSSRDLFSGVLRI
VYVMRGSVIWLCRMSMGCCA
MSVRPL
ERFSFVLVNGVRYFRSNLRW
ISIGYEQFLDSCNLLSIYLT
DKVTHQCSISMSWAWRVHVV
VFPPEMRVFPLFCW
YHTPCSTSDVARRGRYSRRD
TDTSAGFM
ADVGGD
LRVILQLYIEGLIVQ
VTSVRPIYSRCLLNYMLRSV
SKCEMMRTLEESDDVSFVVK
YWVGEWLMCPYTR
PLDQCPKVPSLVASLQSESR
VLRKARVVIRSYSMEVRFRS
MILSNKVLIGCE
FSLFS
PFSFCHLLLSKISIGWRYSL
VHFSVMVGKKDDPSLF
MITDSGIYFAFCWDKSTVSS
YVSIWNHDADRGRC
SNSRNSTGVVQMTRIPKMMR
GTRIGEIRLASFGSVRGFNV
LTSVMIFVLVRIELPNQTLS
IEREMCTGNLVPLNAWKRFH
IWNKFGIIFYVVYYSIRTNL
LPILHSRPVIQETL
TTEDLSVG
SFNRGRLATLYSSLVHGRLR
AMDRTNNIEDEQWIMNKYWV
RWNDKWGVDVRSLIIIFVGS
DMRVFANMWLVEIPVPS
GLDHSKGYLQLS
HGGCC
AYSYAYGHCRYGSEVS
SVERFIMPC
LTKGQ
FFRQQKYSVCLFGGTFIWVV
YIRVVNAPVCTGNCLQDAYL
LYWEPKLTSDFKRLDLRLVP
DMYVLLMRTQSLGMPLIGIS
GIMMSD
LCERIGVISGA
YLMYLGSFSAMLREKWQL
LCGYGSGKTISG
GSTYTVGSAGSSMTTRDLDM
SLGLHIWFCTLLAIWTLLLL
GKCRQGYTRMWHNYMLMGIL
VTFSSISHIRRYVSNHMCLG
LSVITVLNKKNRSDIMWIMI
WWDTLIAGSLPKLTWNQKTG
KLASLFNYCSERKN
SARIPSLWNHWRIW
VQYFPISGDARGRQLQRI
MINSHDL
RREPQCYYWGAYCSVAASPA
LNSTTCLTAGWIGNAFIACN
TGDSLLLAHLLWSMDIVNMN
AEVPEFTLYVSFYSWVYFRL
ATTGR
AFSISVLM
YACRMKEFYGCILSRVRVWL
EEDKLFCGVMWQFG
IIWREVINVAVYRVVAVTHK
GGYRVGFYQY
ESWNRKVLRHVSVEWHWLV
FSLHNRGFMIQHKRVLEDGA
VASVWLDIPMYLFSQLRTKT
MRVVEYMTSLLSLIFYMGQK
NTNGMQDLSLCCRCYDTELR
LENFRCPVEGAVQERFGANL
ICFVSCKLFFVDSLCFCFAG
IQHSFCGRNSDLPLNVWLMW
FFSDTYSNTSPM
HPMLFSFYVKGRVFLSRV
LYYMKVIGTFRISEAILLYL
NGWCHYWVWASIYDPNEISA
QQHAVR
GGNSWITSMLAYWLTSAHNA
RMNCQFTGMSTFRPPLLGAR
NLCVMPRTTGPLS
SVIMFINRIPGSNPL
VPTVRLTSSSFL
VDQHGFATKGPVLSKVIGHS
NNDYADLRWGKSVGKASGWG
RALMGLVIKPKMSNTNLLDY
LSDVDPEFLFLLLFFP

Amyloid nucleation score, 2.56 ± 0.066:
PVTFSCYNTLACIKLYYGNV

Amyloid nucleation score, 1.99 ± 0.084:
RTTINLLMCGHVMGFNSCLF

Amyloid nucleation score, -0.269 ± 0.73:
FIGFSAWWNGMDNVRVLASS

Amyloid nucleation score, 1.01 ± 0.14:
LVKIWDPSFNCFWMNGISNG

Amyloid nucleation score, -0.263 ± 0.9:
SVNHKFVSDCIFGRATMEVR

Amyloid nucleation score, -0.103 ± 0.64:
ASNCDPMIHFLMHKVYKSFY

Amyloid nucleation score, 0.028 ± 0.2:
YRSTLEKVSVGMMENICVGI

Amyloid nucleation score, 0.872 ± 0.15:
VLVCSAMNGFSFHNLSH

Amyloid nucleation score, 2.62 ± 0.078:
LSCDGNRGTVFVIRIFSGDV

Amyloid nucleation score, 0.802 ± 0.21:
PPVLVNGLTLKWEGVYSVNY

Amyloid nucleation score, 1.4 ± 0.097:
YIMDLKITANVLTYVACARR

Amyloid nucleation score, 0.205 ± 0.46:
LRIMSIYIEEALSIGHDNWF

Amyloid nucleation score, 2.2 ± 0.08:
CRHINFMSIIFSFGDSSYRF

Amyloid nucleation score, 2.22 ± 0.092:
ASYLCVFCDRAFQCGPYRYI

Amyloid nucleation score, 0.339 ± 0.37:
WNYHFPSS
